In assay [1] the target is T1, human CD3 on Jurkat NFAT reporter T cells (human, UniProt P07766 23-207).
T1 construct: whole, on cells; also called CD3 on Jurkat T cells
In words: flow cytometry on Jurkat NFAT reporter T cells (human CD3), 1:4 titration from 50 nM, FITC anti-human IgG Fcγ secondary antibody, median fluorescence; sample pre-incubated overnight with Matriptase (+M). Background: In flow cytometry, cells or beads pass a laser one at a time.
Protocol: (§1) Jurkat-NFAT reporter cells (GloResponse Jurkat NFAT-RE-luc2P; Promega #CS176501) are a human acute lymphatic leukemia reporter cell line with a NFAT promoter, expressing human CD3. The cells were cultured in RPMI1640, 2 g/l glucose, 2 g/l NaHCO₃, 10% FBS, 25 mM HEPES, 2 mM L-glutamin, 1×NEAA, 1× sodium-pyruvate at 0.1-0.5 mio cells per ml.
(§2) The next day, Jurkat cells were harvested and transferred into a 96 well round bottom plate (100,000 cells per well). […] After the staining, the cells were washed twice with FACS buffer to remove unbound molecules. […] After 30 minutes incubation at 4° C. the cells were washed twice with FACS buffer to remove unbound antibodies. Finally, the cells were resuspended in 100 μl FACS buffer and analyzed by flow cytometry using BD Canto II.

The target of assay [2] is T1, human CD3 on Jurkat NFAT reporter T …. The assay is described as follows: flow cytometry on Jurkat NFAT reporter T cells (human CD3), 1:4 titration from 50 nM, FITC anti-human IgG Fcγ secondary antibody, median fluorescence; sample not treated with Matriptase.
Protocol: as §1, §2
Assay [3] concerns the target T2, Trop2 on human cancer cell lines (T-47D, HPAF II, HeLa NLR, OVMANA) (human, UniProt P09758 27-323).
T2 construct: whole, on cells; also called Tumor-associated calcium signal transducer 2
T2 sequence (looked up): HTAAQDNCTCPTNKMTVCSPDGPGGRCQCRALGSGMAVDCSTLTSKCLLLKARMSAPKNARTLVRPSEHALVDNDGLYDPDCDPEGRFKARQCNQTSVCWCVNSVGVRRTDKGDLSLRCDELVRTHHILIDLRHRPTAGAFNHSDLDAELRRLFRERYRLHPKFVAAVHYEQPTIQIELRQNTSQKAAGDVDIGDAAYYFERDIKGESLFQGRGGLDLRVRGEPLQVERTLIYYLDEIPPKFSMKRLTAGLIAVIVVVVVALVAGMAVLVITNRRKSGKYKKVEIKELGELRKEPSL
In words: flow cytometry on T-47D cells, FITC anti-human IgG Fcγ secondary antibody, median fluorescence.
Protocol: (§3) Target cells were harvested and transferred into a 96 well round bottom plate (100,000 cells per well). […] After the staining, the cells were washed twice with FACS buffer to remove unbound molecules. […] After 30 minutes incubation at 4° C. the cells were washed twice with FACS buffer to remove unbound antibodies. Finally, the cells were resuspended in 100 μl FACS buffer and analyzed by flow cytometry using BD Canto II.

The target in assay [4] is T2, Trop2 on human cancer cell lines …. In words: flow cytometry on OVMANA cells, FITC anti-human IgG Fcγ secondary antibody, median fluorescence.
Protocol: as §3
Assay [5] shares this target. The assay is described as follows: flow cytometry on HeLa ST14 cells, FITC anti-human IgG Fcγ secondary antibody, median fluorescence.
Protocol: as §3
Assay [6] has the same target. The assay is described as follows: flow cytometry on HPAF II cells, FITC anti-human IgG Fcγ secondary antibody, median fluorescence.
Protocol: as §3
Assay [7] addresses T1, human CD3 on Jurkat NFAT reporter T …. The assay is described as follows: flow cytometry on Jurkat NFAT reporter T cells (human CD3), 1:4 titration from 50 nM, FITC anti-human IgG Fcγ secondary antibody, median fluorescence; sample not treated with Matriptase. This is another data set of the same source.
Protocol: (§4) Jurkat-NFAT reporter cells (GloResponse Jurkat NFAT-RE-luc2P; Promega #CS176501) are a human acute lymphatic leukemia reporter cell line with a NFAT promoter, expressing human CD3. The cells were cultured in RPMI1640, 2 g/l glucose, 2 g/l NaHCO₃, 10% FBS, 25 mM HEPES, 2 mM L-glutamin, 1×NEAA, 1×sodium-pyruvate at 0.1-0.5 mio cells per ml.
(§5) The next day, Jurkat cells were harvested and transferred into a 96 well round bottom plate (100′000 cells per well). […] After the staining, the cells were washed twice with FACS buffer to remove unbound molecules. […] After 30 min incubation at 4° C. the cells were washed twice with FACS buffer to remove unbound antibodies. Finally, the cells were resuspended in a 100 μl FACS buffer and analyzed by flow cytometry using BD Canto II.
For assay [8] the target is unchanged. In words: flow cytometry on Jurkat NFAT reporter T cells (human CD3), 1:4 titration from 50 nM, FITC anti-human IgG Fcγ secondary antibody, median fluorescence; sample pre-incubated overnight with Matriptase (+M). This is another data set of the same source.
Protocol: as §4, §5

Read-outs that look alike come from different tables or passages of the source.

T1 sequence (P07766 23-207): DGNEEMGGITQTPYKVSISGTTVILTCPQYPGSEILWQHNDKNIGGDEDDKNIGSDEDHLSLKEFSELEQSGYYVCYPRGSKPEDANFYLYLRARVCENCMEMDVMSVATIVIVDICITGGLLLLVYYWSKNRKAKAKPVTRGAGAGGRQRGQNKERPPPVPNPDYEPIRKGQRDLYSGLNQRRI

B1: classical Trop2 TCB P1AI0692 (unmasked) (bispecific antibody, human IgG1, lambda, L234A L235A)
heavy 1: DIQMTQSPSSLSASVGDRVTITCKASQDVSIAVAWYQQKPGKAPKVLIYSASYRYTGVPDRFSGSGSGTDFTFTISSLQPEDIAVYYCQQHYITPLTFGGGTKVEIKSSASTKGPSVFPLAPSSKSTSGGTAALGCLVKDYFPEPVTVSWNSGALTSGVHTFPAVLQSSGLYSLSSVVTVPSSSLGTQTYICNVNHKPSNTKVDKKVEPKSCDKTHTCPPCPAPEAAGGPSVFLFPPKPKDTLMISRTPEVTCVVVDVSHEDPEVKFNWYVDGVEVHNAKTKPREEQYNSTYRVVSVLTVLHQDWLNGKEYKCKVSNKALGAPIEKTISKAKGQPREPQVCTLPPSRDELTKNQVSLSCAVKGFYPSDIAVEWESNGQPENNYKTTPPVLDSDGSFFLVSKLTVDKSRWQQGNVFSCSVMHEALHNHYTQKSLSLSPG
heavy 2: not shown
light 1: QAVVTQEPSLTVSPGGTVTLTCGSSTGAVTTSNYANWVQEKPGQAFRGLIGGTNKRAPGTPARFSGSLLGGKAALTLSGAQPEDEAEYYCALWYSNLWVFGGGTKLTVLGQPKAAPSVTLFPPSSKKLQANKATLVCLISDFYPGAVTVAWKADSSPVKAGVETTTPSKQSNNKYAASSYLSLTPEQWKSHRSYSCQVTHEGSTVEKTVAPTECS
light 2: QIQLVQSGHEVKKPGASVKVSCKASGYTFTNYGMNWVRQAPGQGLEWMGWINTKTGEPTYAEEFKGRFVFSLETSASTAYLQISSLKAEDMAMYFCGRGGYGSSYWYFDVWGQGTTVTVSSASVAAPSVFIFPPSDEQLKSGTASVVCLLNNFYPREAKVQWKVDNALQSGNSQESVTEQDSKDSTYSLSSTLTLSKADYEKHKVYACEVTHQGLSSPVTKSFNRGEC
notes: Tested with and without Matriptase pre-treatment; no mask; also called unmasked Trop2 TCB; unmasked classical TCB
As usually defined, the EC50 (read off the curve) is the concentration at which the effect is half-maximal. Read a low EC50 (read off the curve) as an effect from little substance. As for B1, the 50% effective concentration (EC50 (read off the curve)) in assay [1] is approximately 1 nM; in assay [2], approximately 1 nM; in assay [3] it was approximately 0.9 nM; in assay [4], approximately 1 nM; in assay [5], approximately 1 nM; in assay [6], approximately 1 nM.

B2: non-cleavable IGF-1R proTCB P1AH0969 (IGF-1R pro-TCB 2+1; non-cleavable) (bispecific antibody, human IgG1, lambda, L234A L235A)
heavy 1: EIVLTQSPATLSLSPGERATLSCRASQSVSSYLAWYQQKPGQAPRLLIYDASKRATGIPARFSGSGSGTDFTLTISSLEPEDFAVYYCQQRSKWPPWTFGQGTKVESKSSASTKGPSVFPLAPSSKSTSGGTAALGCLVKDYFPEPVTVSWNSGALTSGVHTFPAVLQSSGLYSLSSVVTVPSSSLGTQTYICNVNHKPSNTKVDKKVEPKSCDKTHTCPPCPAPEAAGGPSVFLFPPKPKDTLMISRTPEVTCVVVDVSHEDPEVKFNWYVDGVEVHNAKTKPREEQYNSTYRVVSVLTVLHQDWLNGKEYKCKVSNKALGAPIEKTISKAKGQPREPQVCTLPPSRDELTKNQVSLSCAVKGFYPSDIAVEWESNGQPENNYKTTPPVLDSDGSFFLVSKLTVDKSRWQQGNVFSCSVMHEALHNHYTQKSLSLSPG
heavy 2: not shown
light 1: B1 light 1
light 2: QVELVESGGGVVQPGRSQRLSCAASGFTFSSYGMHWVRQAPGKGLEWVAIIWFDGSSTYYADSVRGRFTISRDNSKNTLYLQMNSLRAEDTAVYFCARELGRRYFDLWGRGTLVSVSSASVAAPSVFIFPPSDEQLKSGTASVVCLLNNFYPREAKVQWKVDNALQSGNSQESVTEQDSKDSTYSLSSTLTLSKADYEKHKVYACEVTHQGLSSPVTKSFNRGEC
notes: H1L2 mask joined by a GS linker without a protease site; also called non-cleavable IGF-1R TCB construct; non-cleavable proTCB
With B2, in assay [7], the binding result is listed as “no binding (tested: 50 nM)”.

B3: classical IGF-1R TCB P1AH0975 (unmasked) (bispecific antibody, human IgG1, lambda, L234A L235A)
heavy 1: B2 heavy 1
heavy 2: not shown
light 1: B1 light 1
light 2: B2 light 2
notes: Tested with and without Matriptase pre-treatment; no mask; also called unmasked classical IGF-1R TCB
In the case of B3, the results for the “EC50 (read off the curve)” value in assay [7] and in assay [8] were approximately 0.7 nM and approximately 0.8 nM, respectively.

B4: non-cleavable Trop2 proTCB P1AI0691 (Trop2 pro-TCB 2+1; non-cleavable) (bispecific antibody, human IgG1, lambda, L234A L235A)
heavy 1: B1 heavy 1
heavy 2: not shown
light 1: B1 light 1
light 2: B1 light 2
notes: H1L2 mask joined by a GS linker without a protease site; also called non-cleavable proTCB
In the case of B4, the binding result in assay [2] is given as “no binding (tested: 50 nM)”. The “EC50 (read off the curve)” value is approximately 2 nM in assay [3], approximately 3 nM in assay [4], approximately 2 nM in assay [5] and approximately 2 nM in assay [6].

B5: Matriptase pre-cleaved Trop2 proTCB (P1AI0690 after overnight incubation with Matriptase) (bispecific antibody)
heavy 1: B1 heavy 1
heavy 2: not shown
light 1: B1 light 1
light 2: B1 light 2
notes: also called Matriptase pre-cleaved (+M) Trop2 proTCB
Regarding B5, in assay [1], the “EC50 (read off the curve)” value was approximately 0.9 nM.

B6: Matriptase pre-cleaved IGF-1R proTCB (P1AH0943 after overnight incubation with human recombinant Matriptase) (bispecific antibody)
heavy 1: B2 heavy 1
heavy 2: not shown
light 1: B1 light 1
light 2: B2 light 2
notes: also called Matriptase pre-cleaved (+M) IGF-1R proTCB
B6: the “EC50 (read off the curve)” value in assay [8] was approximately 0.9 nM.

B7: IGF-1R proTCB P1AH0943 (IGF-1R pro-TCB 2+1; matriptase; P035.093 PQARK H1L2 mask), not Matriptase pre-cleaved (bispecific antibody, human IgG1, lambda, L234A L235A)
heavy 1: B2 heavy 1
heavy 2: not shown
light 1: B1 light 1
light 2: B2 light 2
notes: Knob-into-hole 2+1 format with the anti-idiotypic H1L2 scFv mask fused through a PQARK linker to the VH of the CD3 Fab; also called not-Matriptase pre-cleaved IGF-1R proTCB; not pre-cleaved IGF-1R proTCB
Turning to B7, in assay [7], the binding result is on record as “no binding (tested: 50 nM)”.

B8: Trop2 proTCB P1AI0690 (Trop2 pro-TCB 2+1; matriptase; P035.093 PQARK H1L2 mask), not Matriptase pre-cleaved (bispecific antibody, human IgG1, lambda, L234A L235A)
heavy 1: B1 heavy 1
heavy 2: not shown
light 1: B1 light 1
light 2: B1 light 2
notes: Knob-into-hole 2+1 format; also called masked Trop2 proTCB; not pre-cleaved Trop2 proTCB
Take B8: the binding result in assay [2] is recorded as “no binding (tested: 50 nM)”. For the same molecule, the “EC50 (read off the curve)” value in assay [3] was approximately 2 nM; in assay [4], approximately 1 nM; in assay [5] it was approximately 1 nM; in assay [6], approximately 1 nM.
